This series concerns the molecule itself. Put plainly: SDS-PAGE and Western blot of the purified protein; 1 ug purified histone on 16.5% Tris-Tricine SDS gels, Coomassie stain or Western blot with polyclonal anti-HTkA antibodies; dimers and higher-order species persist after extensive heating. (In general: In western blotting, separated proteins are transferred to a membrane and probed.)

B1: Thermococcus kodakarensis histone A protein (HTkA^WT) (natural protein)
chain: not shown
notes: Histone A (HTkA) of Thermococcus kodakarensis, encoded by TK1413 on plasmid pTS600; No tag is mentioned; purified by heparin and size exclusion; also called TK1413; recombinant HTkA; source: E. coli Rosetta 2 (DE3), purified (heat treatment, HiTrap Heparin, Sephacryl S-100)
Regarding B1, the binding result is given as “binds”.

The record behind these values is article PMC10899632, “Archaeal histone-based chromatin structures regulate transcription elongation rates” (Communications Biology, 2024).
